Tested on: MS2 coat protein
Assay: apparent KD of MS2 coat protein; higher = weaker reporter binding
Conditions: Eterna round: R107
Protocol: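 RNA-MaP round R107: designed RNA switches with theophylline, tryptophan, arginine or FMN aptamers are transcribed on-chip within common flanks. They are titrated with SNAP-549-labelled MS2 coat protein in RNA-MaP buffer (100 mM Tris pH 7.5, 80 mM KCl, 4 mM MgCl2), without ligand or with the indicated ligand. Median apparent KD per design.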

[1] = input ligand: theophylline 20 uM
[2] = input ligand: theophylline 2 mM
[3] = input ligand: tryptophan 2.4 mM

AGAGAUGAACAUGAGGAUCACCCAUGUAAACGAGGACCGGUACGGCCGCCACUCGUGGGUGUAAUAGAAUAAUAAGAGAAUAAUA [Turkey 1]
apparent KD of MS2 coat protein (input ligand: arginine 13.2 mM): 24.4 nM
apparent KD of MS2 coat protein (input ligand: none): 63.2 nM
apparent KD of MS2 coat protein [1]: 92 nM
apparent KD of MS2 coat protein [2]: 59.6 nM
apparent KD of MS2 coat protein [3]: 75.5 nM

AGAGUCAGACAAAAGUCUGGCUCAGCCGAAGGAGCGUCCGAAAGGACAGGUAGGUCGCGGUUACCUGAGGAUCACCCAGGUUCCU [ArgAS 24 #OpenEnded #AlternativeMS2]
apparent KD of MS2 coat protein (input ligand: arginine 13.2 mM): 53.8 nM
apparent KD of MS2 coat protein (input ligand: none): 139 nM
apparent KD of MS2 coat protein [1]: 86.9 nM
apparent KD of MS2 coat protein [2]: 115 nM
apparent KD of MS2 coat protein [3]: 91.5 nM

AGAGUCUAGUCGGCCGCCACUCAUGUCCAAUGGACAUGAGGAUCACCCAUGUACCGAAGGUACAUGAGGACCGGGACUGGACUCA [Omei Tryp B SS C v6]
apparent KD of MS2 coat protein (input ligand: arginine 13.2 mM): 43.6 nM
apparent KD of MS2 coat protein [1]: 496 nM
apparent KD of MS2 coat protein [2]: 330 nM

AGAGUUAGACAAAAGUCUAGCUCACCAGAAGGAGCGUCCGAAAGGACAGGUAGGUCGCUGGUGCACGAGGAUCACCCGUGUUCCU [ArgAS 21 #OpenEnded #AlternativeMS2]
apparent KD of MS2 coat protein (input ligand: arginine 13.2 mM): 57.9 nM
apparent KD of MS2 coat protein (input ligand: none): 80.6 nM
apparent KD of MS2 coat protein [1]: 90.2 nM
apparent KD of MS2 coat protein [2]: 118 nM
apparent KD of MS2 coat protein [3]: 67.3 nM

AGAUCUUUCGAAAGAAGGAUCUUGUCUGAUACCAGAGACGAAAGUCUCCCUUGGCAGCAGUGCCAACAUGAGGAUCACCCAUGUA [Theophylline A 12]
apparent KD of MS2 coat protein (input ligand: arginine 13.2 mM): 22 nM
apparent KD of MS2 coat protein [1]: 24.7 nM
apparent KD of MS2 coat protein [3]: 21.3 nM

AGAUUCGACACGGCCGCCACUCGUGACAGAUUUCGCAGUGGUCAACAUGAGGAUCACCCAUGUCUGAGGACCGGGUGUUGAGUCU [XTryp B #9]
apparent KD of MS2 coat protein (input ligand: arginine 13.2 mM): 36.4 nM
apparent KD of MS2 coat protein [1]: 39.3 nM
apparent KD of MS2 coat protein [2]: 41.1 nM

AGAUUCGACACGGCCGCCACUCUACACGGAUUUCCGAGUGUCGAACAUGAGGAUCACCCAUGUGGGAGGACCGGGUGUUGAGUCU [XTryp B #11]
apparent KD of MS2 coat protein (input ligand: arginine 13.2 mM): 164 nM
apparent KD of MS2 coat protein [1]: 704 nM
apparent KD of MS2 coat protein [2]: 944 nM

AGAUUCGACACGGCCGCCACUUGUGGUGGAGGGUCUUUAGUCACACAUGAGGAUCACCCAUGUACAAGGACCGGGUGUUGAGUCU [XTryp B #23]
apparent KD of MS2 coat protein (input ligand: arginine 13.2 mM): 19.1 nM
apparent KD of MS2 coat protein (input ligand: none): 19.3 nM
apparent KD of MS2 coat protein [1]: 14.2 nM
apparent KD of MS2 coat protein [2]: 25.4 nM
apparent KD of MS2 coat protein [3]: 36.3 nM

AGAUUCGACACGGCCGCCACUUUCAGUGGCUGGUCACAUGGUGCACAUGAGGAUCACCCAUGUGGAAGGACCGGGUGUUGAGUCU [XTryp B #25]
apparent KD of MS2 coat protein (input ligand: arginine 13.2 mM): 23 nM
apparent KD of MS2 coat protein [1]: 45.2 nM
apparent KD of MS2 coat protein [2]: 38.3 nM

AGCAAGCAACAUGAGGAUCACCCAUGUGAAGGAGCGCCGAAUAAGGCAGGUAGGUCGCACAUGAAUAAAUCAUGUAAAAGCUUGC [MAT - Exclusion Arginine A - Mod of Eli - D23]
apparent KD of MS2 coat protein (input ligand: arginine 13.2 mM): 104 nM
apparent KD of MS2 coat protein (input ligand: none): 185 nM
apparent KD of MS2 coat protein [1]: 164 nM
apparent KD of MS2 coat protein [2]: 68.1 nM
apparent KD of MS2 coat protein [3]: 138 nM

AGCACUGUGACGGCCGCCACUACAUAAAUUGGGUGGUCAGGUUCAUUACAUGAGGAUCACCCAUGUAGGACCGGGUCUCAGUGCA [Omei Trp Exc B A v8]
apparent KD of MS2 coat protein (input ligand: arginine 13.2 mM): 15.9 nM
apparent KD of MS2 coat protein (input ligand: none): 11.4 nM
apparent KD of MS2 coat protein [1]: 20.6 nM
apparent KD of MS2 coat protein [2]: 13.3 nM
apparent KD of MS2 coat protein [3]: 7.33 nM

AGCAGUACAACAGAUACCAGACUUUUAAUGCCUCUAAUUACAUGAGGAUCACCCAUGUUUGUCCCUUGGCAGCUGUUGUACUGCA [JR_ExcTheophyB_Sub010]
apparent KD of MS2 coat protein (input ligand: arginine 13.2 mM): 72.4 nM
apparent KD of MS2 coat protein [1]: 200 nM
apparent KD of MS2 coat protein [3]: 124 nM

AGCCACUCGAGUGAUCCUCACGAGUGGCUACGAGGACCGGUACGGCCGCCACUCGAAUUAACAUGAGGAUCACCCAUGUAAUCUC [Brourdmod06]
apparent KD of MS2 coat protein (input ligand: arginine 13.2 mM): 38.7 nM
apparent KD of MS2 coat protein [1]: 238 nM
apparent KD of MS2 coat protein [2]: 344 nM

AGCCAUGGAAACAUGGCGGCGGCUUGAGCGCGAGGACCGGUACGGCCGCCACUCGGGCAACAUGAGGAUCACCCAUGUUCCUCAU [ETA NP+V+V2 #19]
apparent KD of MS2 coat protein (input ligand: arginine 13.2 mM): 64 nM
apparent KD of MS2 coat protein (input ligand: none): 113 nM
apparent KD of MS2 coat protein [1]: 104 nM
apparent KD of MS2 coat protein [2]: 75.7 nM
apparent KD of MS2 coat protein [3]: 190 nM

AGCGAUAUGCAUGAUACCAGCUACAUGAGGAUCACCCAUGUGCGUCAGAAAUGACUGUGUAGCCCUUGGCAGCAUAAAGCAUGUA [Exclusion - Theophylline B (Freestyle 10)]
apparent KD of MS2 coat protein (input ligand: arginine 13.2 mM): 32.3 nM
apparent KD of MS2 coat protein [1]: 50.7 nM
apparent KD of MS2 coat protein [3]: 38.5 nM

— the supplement of paper PMC9170038
